Data taken from the RNAGym collection of RNA variant scans (doi:10.1093/molbev/msab373).

B1: Azoarcus group I ribozyme (parent)
chain: GUGCCUUGCGCCGGGAAACCACGCAAGGGAUGGUGUCAAAUUCGGCGAAACCUAAGCGCCCGCCCGGGCGUAUGGCAACGCCGAGCCAAGCUUCGGCGCCUGCGCCGAUGAAGGUGUAGAGACUAGACGGCACCCACCUAAGGCAAACGCUAUGGUGAAGGCAUAGUCCAGGGAGUGGCGAAAGUCACACAAACCGG

Variants of: B1
Assay: reverse-splicing fitness (ratio to wild type); higher = more active; in vitro selection; Mg2+ level not given
Procedure, shortened: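 An in vitro group I ribozyme library with randomized positions was T7-transcribed and gel-purified. In triplicate, 10 pmol RNA in EPPS pH 7.5 was reacted with 50 pmoles of a 30-nt RNA substrate for 1 h at 37 °C across several added MgCl2 levels (1–48 mM), then stopped with EDTA. Products were reverse transcribed from a substrate-complementary primer, PCR-amplified and sequenced (HiSeq 4000). Fitness is a variant's read proportion after selection over that before, normalised to wild type.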

| Variant | reverse-splicing fitness |
| --- | --- |
| C82U A111C A120C A145C C150U C169G U176C | 0.0118 |
| C82G A145C C150U C169A U176C | 0.00579 |
| C82G A145C C150U C169A U176G | 0.00476 |
| C82G A145C C150U C169A U176A | 0.0111 |
| C82G A145C C150G C169U U176G | 0.00486 |
| C82G A145C C150G C169U U176A | 0.0101 |
| C82G A145C C150G C169U U176C | 0.00852 |
| C82G A145U U176C | 0.405 |
| C82G A145U U176G | 0.175 |
| C82G A145U U176A | 0.395 |
| C82G A145C C169G U176G | 0.0041 |
| C82G A145C C169G U176C | 0.011 |
| C82G A145C C169G U176A | 0.0202 |
| C82G A145C C150U C169G U176G | 0.00533 |
| C82G A145C C150U C169G U176A | 0.019 |
| C82G A145C C150U C169G U176C | 0.00942 |
| C82G A145G C150U U176G | 0.106 |
| C82G A145G C150U U176A | 0.264 |
| C82G A145G C150U U176C | 0.291 |
| C82G A145C C150A C169A U176A | 0.0106 |
| C82G A145C C150A C169A U176C | 0.0049 |
| C82G A145C C150A C169A U176G | 0.00515 |
| C82U A111C A120C A145C C150G C169A U176A | 0.00661 |
| C82U A111C A120C A145C C150G C169A U176C | 0.00704 |

| Variant | reverse-splicing fitness |
| --- | --- |
| C82U A111C A120C A145C C150G C169A U176G | 0.00633 |
| C82G A145U C150A C169A U176A | 0.0121 |
| C82G A145U C150A C169A U176G | 0.00561 |
| C82G A145U C150A C169A U176C | 0.0106 |
| C82G A120U C169U U176A | 0.00406 |
| C82G A120U C169U U176G | 0.00154 |
| C82G A120U C169U U176C | 0.00518 |
| C82U A111C A120C A145C C150G C169U U176G | 0.00551 |
| C82U A111C A120C A145C C150G C169U U176C | 0.0117 |
| C82U A111C A120C A145C C150G C169U U176A | 0.0102 |
| C82G A120U C150U C169A U176C | 0.00267 |
| C82G A120U C150U C169A U176A | 0.00417 |
| C82G A120U C150U C169A U176G | 0.00166 |
| C82G C150G C169A U176A | 0.0112 |
| C82G C150G C169A U176C | 0.00997 |
| C82G C150G C169A U176G | 0.00752 |
| C82G A120U C169A U176G | 0.000985 |
| C82G A120U C169A U176C | 0.00259 |
| C82G A120U C169A U176A | 0.00247 |
| C82G A120U C150U C169U U176A | 0.00509 |
| C82G A120U C150U C169U U176G | 0.00193 |
| C82G A120U C150U C169U U176C | 0.00336 |
| C82G A145G C150U C169G U176C | 0.0184 |
| C82G A145G C150U C169G U176G | 0.00499 |

| Variant | reverse-splicing fitness |
| --- | --- |
| C82G A145G C150U C169G U176A | 0.0145 |
| C82U A111C A120C A145C C150A U176C | 0.0116 |
| C82U A111C A120C A145C C150A U176G | 0.00522 |
| C82U A111C A120C A145C C150A U176A | 0.00991 |
| C82G A145C C150A U176C | 0.0216 |
| C82G A145C C150A U176G | 0.0117 |
| C82G A145C C150A U176A | 0.0237 |
| C82G A145C C150G C169G U176C | 0.00656 |
| C82G A145C C150G C169G U176A | 0.00973 |
| C82G A145C C150G C169G U176G | 0.0054 |
| C82G A145G C150A C169G | 0.00861 |
| C82G A145G C150A C169U | 0.0106 |
| C82G A145G C150A C169A | 0.0117 |
| C82G A145C C150U C169A | 0.00797 |
| C82G A145C C150U C169U | 0.00975 |
| C82G A145C C150U C169G | 0.00731 |
| C82G A145C U176A | 0.378 |
| C82G A145C U176C | 0.35 |
| C82G A145C U176G | 0.153 |
| C82G A145G C150U C169G | 0.012 |
| C82G A145G C150U C169U | 0.0159 |
| C82G A145G C150U C169A | 0.0118 |
| C82G A145C C150U U176A | 0.0881 |
| C82G A145C C150U U176C | 0.0809 |

| Variant | reverse-splicing fitness |
| --- | --- |
| C82G A145C C150U U176G | 0.0373 |
| C82G A145G C150G C169A U176G | 0.00858 |
| C82G A145G C150G C169A U176C | 0.0144 |
| C82G A145G C150G C169A U176A | 0.0146 |
| C82G A145G C150G U176G | 0.0127 |
| C82G A145G C150G U176C | 0.0452 |
| C82G A145G C150G U176A | 0.0343 |
| C82G A145G C169A | 0.00951 |
| C82G A145G C169G | 0.0112 |
| C82G A145G C169U | 0.0164 |
| C82G A145C C169U | 0.016 |
| C82G A145C C169A | 0.00859 |
| C82G A145C C169G | 0.0115 |
| C82G A145G C150G C169U | 0.011 |
| C82G A145G C150G C169G | 0.00848 |
| C82G A145G C150G C169A | 0.00944 |
| C82U A111C A120C A145C C150A C169G U176A | 0.0253 |
| C82U A111C A120C A145C C150A C169G U176G | 0.00588 |
| C82U A111C A120C A145C C150A C169G U176C | 0.0151 |
| C82G C150G U176G | 0.00797 |
| C82G C150G U176C | 0.0287 |
| C82G C150G U176A | 0.0255 |
| C82G A145U C169A U176G | 0.00461 |
| C82G A145U C169A U176A | 0.00756 |

| Variant | reverse-splicing fitness |
| --- | --- |
| C82G A145U C169A U176C | 0.00844 |
| C82G A120U C150U C169G U176C | 0.00376 |
| C82G A120U C150U C169G U176A | 0.00481 |
| C82G A120U C150U C169G U176G | 0.00205 |
| C82G A145G C169G U176C | 0.0279 |
| C82G A145G C169G U176A | 0.0176 |
| C82G A145G C169G U176G | 0.00454 |
| C82G A145G C150G C169G U176G | 0.00613 |
| C82G A145G C150G C169G U176C | 0.0146 |
| C82G A145G C150G C169G U176A | 0.0113 |
| C82G A145U C150A U176A | 0.0428 |
| C82G A145U C150A U176G | 0.0186 |
| C82G A145U C150A U176C | 0.0384 |
| C82G A145U C150A C169G U176G | 0.00436 |
| C82G A145U C150A C169G U176C | 0.0129 |
| C82G A145U C150A C169G U176A | 0.0109 |
| C82U | 0.643 |
| C82G A145G C150U C169A U176A | 0.0169 |
| C82G A145G C150U C169A U176G | 0.00619 |
| C82G A145G C150U C169A U176C | 0.0162 |
| C82G A120U C169G | 0.00666 |
| C82G A120U C169A | 0.00257 |
| C82G A120U C169U | 0.00719 |
| C82G A145G C150A | 0.0607 |

| Variant | reverse-splicing fitness |
| --- | --- |
| C82G A145G C150U | 0.401 |
| C82G A145G C150G | 0.05 |
| C82G A145C C169U U176G | 0.00465 |
| C82G A145C C169U U176C | 0.0115 |
| C82G A145C C169U U176A | 0.0128 |
| C82U A111C A120C A145C C150A C169A | 0.00737 |
| C82U A111C A120C A145C C150A C169G | 0.00647 |
| C82U A111C A120C A145C C150A C169U | 0.00906 |
| C82G C169U | 0.017 |
| C82G C169A | 0.00968 |
| C82G C169G | 0.0111 |
| C82U A111C A120C A145C C150G C169G U176G | 0.00552 |
| C82U A111C A120C A145C C150G C169G U176A | 0.00861 |
| C82U A111C A120C A145C C150G C169G U176C | 0.00799 |
| C82G A145U C150U U176G | 0.0935 |
| C82G A145U C150U U176A | 0.236 |
| C82G A145U C150U U176C | 0.234 |
| C82G A145G C150A C169A U176A | 0.0204 |
| C82G A145G C150A C169A U176C | 0.0238 |
| C82G A145G C150A C169A U176G | 0.00731 |
| C82U A111C A120C A145C C150G U176A | 0.00512 |
| C82U A111C A120C A145C C150G U176C | 0.00717 |
| C82U A111C A120C A145C C150G U176G | 0.00262 |
| C82G C150G | 0.0318 |

| Variant | reverse-splicing fitness |
| --- | --- |
| C82G C150A | 0.0416 |
| C82G C150U | 0.252 |
| C82G A145C C150A C169G U176C | 0.0105 |
| C82G A145C C150A C169G U176G | 0.00624 |
| C82G A145C C150A C169G U176A | 0.0223 |
| C82G A145C C150G C169G | 0.00714 |
| C82G A145C C150G C169A | 0.00875 |
| C82G A145C C150G C169U | 0.01 |
| C82G A145U C150U C169G U176G | 0.00545 |
| C82G A145U C150U C169G U176C | 0.0131 |
| C82G A145U C150U C169G U176A | 0.0117 |
| C82G A145C C150U C169U U176A | 0.0142 |
| C82G A145C C150U C169U U176C | 0.00905 |
| C82G A145C C150U C169U U176G | 0.00436 |
| C82G A120U U176C | 0.113 |
| C82G A120U U176G | 0.0201 |
| C82G A120U U176A | 0.0729 |
| C82G A145U C150U C169A U176A | 0.0114 |
| C82G A145U C150U C169A U176C | 0.00851 |
| C82G A145U C150U C169A U176G | 0.00466 |
| C82G C169U U176G | 0.00463 |
| C82G C169U U176A | 0.0135 |
| C82G C169U U176C | 0.0165 |
